Assay results reported in patent publication US20160272693A1 (ZEALAND PHARMA A S, published 2016).
*1 amine or outer side, *2 acyl side, *3 side chain or, on linkers, in order; H or OH if unused. Bridges are numbered along the chain shown (N, C = ends). [ ]: non-standard residue; d: D form. The star is where a group is joined. C20 diacid = O=C(O)CCCCCCCCCCCCCCCCCCC(=O)*; γGlu = O=C(O)[C@H](CCC(=O)[*:2])N[*:1]; Hyp = O=C(O)[C@@H]1C[C@@H](O)CN1; NMeI = CC[C@H](C)[C@H](NC)C(=O)O; Aad = N[C@@H](CCCC(=O)O)C(=O)O; Sar = CNCC(=O)O

T1: human amylin receptor 3 (hAMYR3), hCTR2 co-expressed with human receptor activity modifying protein 3 (hRAMP3) (human, UniProt P30988 25-474; O60896 24-148)
T1 sequence (looked up) 1: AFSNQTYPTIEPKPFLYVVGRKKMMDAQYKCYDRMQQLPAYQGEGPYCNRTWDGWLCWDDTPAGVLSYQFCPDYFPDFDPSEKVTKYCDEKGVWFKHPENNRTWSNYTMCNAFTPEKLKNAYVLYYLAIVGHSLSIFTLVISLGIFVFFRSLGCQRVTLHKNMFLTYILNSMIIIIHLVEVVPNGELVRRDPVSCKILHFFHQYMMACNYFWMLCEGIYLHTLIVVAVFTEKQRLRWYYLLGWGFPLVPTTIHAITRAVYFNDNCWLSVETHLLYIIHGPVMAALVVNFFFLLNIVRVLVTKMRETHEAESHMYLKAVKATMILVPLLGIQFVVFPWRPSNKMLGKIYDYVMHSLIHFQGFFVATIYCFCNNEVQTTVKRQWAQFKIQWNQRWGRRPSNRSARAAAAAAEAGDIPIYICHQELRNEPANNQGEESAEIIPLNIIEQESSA
T1 sequence (looked up) 2: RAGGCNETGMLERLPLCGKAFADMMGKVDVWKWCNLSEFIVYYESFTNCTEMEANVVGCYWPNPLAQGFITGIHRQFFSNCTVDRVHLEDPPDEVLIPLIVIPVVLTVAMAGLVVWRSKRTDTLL


Each binder was assayed against T1, human amylin receptor 3 (hAMYR3), hCTR2 … (assay: cell-based or functional assay).

Row | hAMYR3 EC50 (nM); cAMP induction | Binder
1 | 0.53 nM | {C20 diacid-γGlu}-RCNTATCATQRLADFLQRSSF[Sar]A[NMeI]LSSTEVGSTTP-NH2 (disulfide 2-7; SMILES CC[C@H](C)[C@@H](C(=O)N[C@@H](CC(C)C)C(=O)N[C@@H](CO)C(=O)N[C@@H](CO)C(=O)N[C@H](C(=O)N[C@@H](CCC(=O)O)C(=O)N[C@H](C(=O)NCC(=O)N[C@@H](CO)C(=O)N[C@H](C(=O)N[C@H](C(=O)N1CCC[C@H]1C(N)=O)[C@@H](C)O)[C@@H](C)O)C(C)C)[C@@H](C)O)N(C)C(=O)[C@H](C)NC(=O)CN(C)C(=O)[C@H](Cc1ccccc1)NC(=O)[C@H](CO)NC(=O)[C@H](CO)NC(=O)[C@H](CCCNC(=N)N)NC(=O)[C@H](CCC(N)=O)NC(=O)[C@H](CC(C)C)NC(=O)[C@H](Cc1ccccc1)NC(=O)[C@H](CC(=O)O)NC(=O)[C@H](C)NC(=O)[C@H](CC(C)C)NC(=O)[C@H](CCCNC(=N)N)NC(=O)[C@H](CCC(N)=O)NC(=O)[C@@H](NC(=O)[C@H](C)NC(=O)[C@@H]1CSSC[C@H](NC(=O)[C@H](CCCNC(=N)N)NC(=O)CC[C@H](NC(=O)CCCCCCCCCCCCCCCCCCC(=O)O)C(=O)O)C(=O)N[C@@H](CC(N)=O)C(=O)N[C@@H]([C@@H](C)O)C(=O)N[C@@H](C)C(=O)N[C@@H]([C@@H](C)O)C(=O)N1)[C@@H](C)O) [[19CD]-isoGlu-R-C( )-NTAT-C( )-ATQRLADFLQRSSF-Gly(Me)-A-Ile(Me)-LSSTEVGSTTP-NH2 (Compd. 82)]
2 | 0.23 nM | {C20 diacid-γGlu}-RCNTATCATQRLADFLQRSSF[Sar]A[NMeI]LSSTEVGSGT[Hyp]-NH2 (disulfide 2-7; SMILES CC[C@H](C)[C@@H](C(=O)N[C@@H](CC(C)C)C(=O)N[C@@H](CO)C(=O)N[C@@H](CO)C(=O)N[C@H](C(=O)N[C@@H](CCC(=O)O)C(=O)N[C@H](C(=O)NCC(=O)N[C@@H](CO)C(=O)NCC(=O)N[C@H](C(=O)N1C[C@H](O)C[C@H]1C(N)=O)[C@@H](C)O)C(C)C)[C@@H](C)O)N(C)C(=O)[C@H](C)NC(=O)CN(C)C(=O)[C@H](Cc1ccccc1)NC(=O)[C@H](CO)NC(=O)[C@H](CO)NC(=O)[C@H](CCCNC(=N)N)NC(=O)[C@H](CCC(N)=O)NC(=O)[C@H](CC(C)C)NC(=O)[C@H](Cc1ccccc1)NC(=O)[C@H](CC(=O)O)NC(=O)[C@H](C)NC(=O)[C@H](CC(C)C)NC(=O)[C@H](CCCNC(=N)N)NC(=O)[C@H](CCC(N)=O)NC(=O)[C@@H](NC(=O)[C@H](C)NC(=O)[C@@H]1CSSC[C@H](NC(=O)[C@H](CCCNC(=N)N)NC(=O)CC[C@H](NC(=O)CCCCCCCCCCCCCCCCCCC(=O)O)C(=O)O)C(=O)N[C@@H](CC(N)=O)C(=O)N[C@@H]([C@@H](C)O)C(=O)N[C@@H](C)C(=O)N[C@@H]([C@@H](C)O)C(=O)N1)[C@@H](C)O) [[19CD]-isoGlu-R-C( )-NTAT-C( )-ATQRLADFLQRSSF-Gly(Me)-A-Ile(Me)-LSSTEVGSGT-Hyp-NH2 (Compd. 81)]
3 | 0.15 nM | {C20 diacid-γGlu}-RCNTATCATQRLA[Aad]FLQRSSF[Sar]A[NMeI]LSSTEVGSNT[Hyp]-NH2 (disulfide 2-7; SMILES CC[C@H](C)[C@@H](C(=O)N[C@@H](CC(C)C)C(=O)N[C@@H](CO)C(=O)N[C@@H](CO)C(=O)N[C@H](C(=O)N[C@@H](CCC(=O)O)C(=O)N[C@H](C(=O)NCC(=O)N[C@@H](CO)C(=O)N[C@@H](CC(N)=O)C(=O)N[C@H](C(=O)N1C[C@H](O)C[C@H]1C(N)=O)[C@@H](C)O)C(C)C)[C@@H](C)O)N(C)C(=O)[C@H](C)NC(=O)CN(C)C(=O)[C@H](Cc1ccccc1)NC(=O)[C@H](CO)NC(=O)[C@H](CO)NC(=O)[C@H](CCCNC(=N)N)NC(=O)[C@H](CCC(N)=O)NC(=O)[C@H](CC(C)C)NC(=O)[C@H](Cc1ccccc1)NC(=O)[C@H](CCCC(=O)O)NC(=O)[C@H](C)NC(=O)[C@H](CC(C)C)NC(=O)[C@H](CCCNC(=N)N)NC(=O)[C@H](CCC(N)=O)NC(=O)[C@@H](NC(=O)[C@H](C)NC(=O)[C@@H]1CSSC[C@H](NC(=O)[C@H](CCCNC(=N)N)NC(=O)CC[C@H](NC(=O)CCCCCCCCCCCCCCCCCCC(=O)O)C(=O)O)C(=O)N[C@@H](CC(N)=O)C(=O)N[C@@H]([C@@H](C)O)C(=O)N[C@@H](C)C(=O)N[C@@H]([C@@H](C)O)C(=O)N1)[C@@H](C)O) [[19CD]-isoGlu-R-C( )-NTAT-C( )-ATQRLA-Aad-FLQRSSF-Gly(Me)-A-Ile(Me)-LSSTEVGSNT-Hyp-NH2 (Compd. 86)]
4 | 0.54 nM | {C20 diacid-γGlu}-RCNTATCATQRLAHFLERSSF[Sar]A[NMeI]LSSTEVGSSTP-NH2 (disulfide 2-7; SMILES CC[C@H](C)[C@@H](C(=O)N[C@@H](CC(C)C)C(=O)N[C@@H](CO)C(=O)N[C@@H](CO)C(=O)N[C@H](C(=O)N[C@@H](CCC(=O)O)C(=O)N[C@H](C(=O)NCC(=O)N[C@@H](CO)C(=O)N[C@@H](CO)C(=O)N[C@H](C(=O)N1CCC[C@H]1C(N)=O)[C@@H](C)O)C(C)C)[C@@H](C)O)N(C)C(=O)[C@H](C)NC(=O)CN(C)C(=O)[C@H](Cc1ccccc1)NC(=O)[C@H](CO)NC(=O)[C@H](CO)NC(=O)[C@H](CCCNC(=N)N)NC(=O)[C@H](CCC(=O)O)NC(=O)[C@H](CC(C)C)NC(=O)[C@H](Cc1ccccc1)NC(=O)[C@H](Cc1c[nH]cn1)NC(=O)[C@H](C)NC(=O)[C@H](CC(C)C)NC(=O)[C@H](CCCNC(=N)N)NC(=O)[C@H](CCC(N)=O)NC(=O)[C@@H](NC(=O)[C@H](C)NC(=O)[C@@H]1CSSC[C@H](NC(=O)[C@H](CCCNC(=N)N)NC(=O)CC[C@H](NC(=O)CCCCCCCCCCCCCCCCCCC(=O)O)C(=O)O)C(=O)N[C@@H](CC(N)=O)C(=O)N[C@@H]([C@@H](C)O)C(=O)N[C@@H](C)C(=O)N[C@@H]([C@@H](C)O)C(=O)N1)[C@@H](C)O) [[19CD]-isoGlu-R-C( )-NTAT-C( )-ATQRLAHFLERSSF-Gly(Me)-A-Ile(Me)-LSSTEVGSSTP-NH2 (Compd. 84)]
5 | 0.32 nM | {C20 diacid-γGlu}-RCNTATCATQRLADFLQRSSF[Sar]A[NMeI]LSSTEVGSTT[Hyp]-NH2 (disulfide 2-7; SMILES CC[C@H](C)[C@@H](C(=O)N[C@@H](CC(C)C)C(=O)N[C@@H](CO)C(=O)N[C@@H](CO)C(=O)N[C@H](C(=O)N[C@@H](CCC(=O)O)C(=O)N[C@H](C(=O)NCC(=O)N[C@@H](CO)C(=O)N[C@H](C(=O)N[C@H](C(=O)N1C[C@H](O)C[C@H]1C(N)=O)[C@@H](C)O)[C@@H](C)O)C(C)C)[C@@H](C)O)N(C)C(=O)[C@H](C)NC(=O)CN(C)C(=O)[C@H](Cc1ccccc1)NC(=O)[C@H](CO)NC(=O)[C@H](CO)NC(=O)[C@H](CCCNC(=N)N)NC(=O)[C@H](CCC(N)=O)NC(=O)[C@H](CC(C)C)NC(=O)[C@H](Cc1ccccc1)NC(=O)[C@H](CC(=O)O)NC(=O)[C@H](C)NC(=O)[C@H](CC(C)C)NC(=O)[C@H](CCCNC(=N)N)NC(=O)[C@H](CCC(N)=O)NC(=O)[C@@H](NC(=O)[C@H](C)NC(=O)[C@@H]1CSSC[C@H](NC(=O)[C@H](CCCNC(=N)N)NC(=O)CC[C@H](NC(=O)CCCCCCCCCCCCCCCCCCC(=O)O)C(=O)O)C(=O)N[C@@H](CC(N)=O)C(=O)N[C@@H]([C@@H](C)O)C(=O)N[C@@H](C)C(=O)N[C@@H]([C@@H](C)O)C(=O)N1)[C@@H](C)O) [[19CD]-isoGlu-R-C( )-NTAT-C( )-ATQRLADFLQRSSF-Gly(Me)-A-Ile(Me)-LSSTEVGSTT-Hyp-NH2 (Compd. 83)]
6 | 0.14 nM | {C20 diacid}-[γGlu]RCNTATCATQRLAHFLQRSSF[Sar]A[NMeI]LSSTEVGSSTP-NH2 (disulfide 3-8; SMILES CC[C@H](C)[C@@H](C(=O)N[C@@H](CC(C)C)C(=O)N[C@@H](CO)C(=O)N[C@@H](CO)C(=O)N[C@H](C(=O)N[C@@H](CCC(=O)O)C(=O)N[C@H](C(=O)NCC(=O)N[C@@H](CO)C(=O)N[C@@H](CO)C(=O)N[C@H](C(=O)N1CCC[C@H]1C(N)=O)[C@@H](C)O)C(C)C)[C@@H](C)O)N(C)C(=O)[C@H](C)NC(=O)CN(C)C(=O)[C@H](Cc1ccccc1)NC(=O)[C@H](CO)NC(=O)[C@H](CO)NC(=O)[C@H](CCCNC(=N)N)NC(=O)[C@H](CCC(N)=O)NC(=O)[C@H](CC(C)C)NC(=O)[C@H](Cc1ccccc1)NC(=O)[C@H](Cc1c[nH]cn1)NC(=O)[C@H](C)NC(=O)[C@H](CC(C)C)NC(=O)[C@H](CCCNC(=N)N)NC(=O)[C@H](CCC(N)=O)NC(=O)[C@@H](NC(=O)[C@H](C)NC(=O)[C@@H]1CSSC[C@H](NC(=O)[C@H](CCCNC(=N)N)NC(=O)CC[C@H](NC(=O)CCCCCCCCCCCCCCCCCCC(=O)O)C(=O)O)C(=O)N[C@@H](CC(N)=O)C(=O)N[C@@H]([C@@H](C)O)C(=O)N[C@@H](C)C(=O)N[C@@H]([C@@H](C)O)C(=O)N1)[C@@H](C)O) [[19CD]-isoGlu-R-C( )-NTAT-C( )-ATQRLAHFLQRSSF-Gly(Me)-A-Ile(Me)-LSSTEVGSSTP-NH2 (Compd. 85)]
7 | 0.28 nM | {C20 diacid-γGlu}-RCNTATCATQRLADFLQRSSF[Sar]A[NMeI]LSSTEVGSGTP-NH2 (disulfide 2-7; SMILES CC[C@H](C)[C@@H](C(=O)N[C@@H](CC(C)C)C(=O)N[C@@H](CO)C(=O)N[C@@H](CO)C(=O)N[C@H](C(=O)N[C@@H](CCC(=O)O)C(=O)N[C@H](C(=O)NCC(=O)N[C@@H](CO)C(=O)NCC(=O)N[C@H](C(=O)N1CCC[C@H]1C(N)=O)[C@@H](C)O)C(C)C)[C@@H](C)O)N(C)C(=O)[C@H](C)NC(=O)CN(C)C(=O)[C@H](Cc1ccccc1)NC(=O)[C@H](CO)NC(=O)[C@H](CO)NC(=O)[C@H](CCCNC(=N)N)NC(=O)[C@H](CCC(N)=O)NC(=O)[C@H](CC(C)C)NC(=O)[C@H](Cc1ccccc1)NC(=O)[C@H](CC(=O)O)NC(=O)[C@H](C)NC(=O)[C@H](CC(C)C)NC(=O)[C@H](CCCNC(=N)N)NC(=O)[C@H](CCC(N)=O)NC(=O)[C@@H](NC(=O)[C@H](C)NC(=O)[C@@H]1CSSC[C@H](NC(=O)[C@H](CCCNC(=N)N)NC(=O)CC[C@H](NC(=O)CCCCCCCCCCCCCCCCCCC(=O)O)C(=O)O)C(=O)N[C@@H](CC(N)=O)C(=O)N[C@@H]([C@@H](C)O)C(=O)N[C@@H](C)C(=O)N[C@@H]([C@@H](C)O)C(=O)N1)[C@@H](C)O) [[19CD]-isoGlu-R-C( )-NTAT-C( )-ATQRLADFLQRSSF-Gly(Me)-A-Ile(Me)-LSSTEVGSGTP-NH2 (Compd. 80)]
